From paper PMC9222203, “A Robust Assay to Monitor Ataxin-3 Amyloid Fibril Assembly” (Cells, 2022)

Legend:
[1] = target: the molecule itself; test: switchSENSE; His-tagged protein (500 nM) captured on NTA3-functionalised DNA nanolevers; the same protein as analyte at 3.75-15 uM; PBS pH 7.5, 1 mM TCEP, 37 C; static measurement mode; global mono-exponential fits; self-association
[2] = target: the molecule itself

B1: Ataxin-3 Josephin domain (domain or fragment, human, UniProt P54252-2 1-180, looked up)
chain: MESIFHEKQEGSLCAQHCLNNLLQGEYFSPVELSSIAHQLDEEERMRMAEGGVTSEDYRTFLQQPSGNMDDSGFFSIQVISNALKVWGLELILFNSPEYQRLRIDPINERSFICNYKEHWFTVRKLGKQWFNLNSLLTGPELISDTYLALFLAQLQQEGYSIFVVKGDLPDCEADQLLQM
notes: Josephin domain of human ataxin-3 (UniProt P54252-2); A TEV site lies downstream of the His tag; no cleavage described; captured by its His tag in switchSENSE; also called Atx3 JD; JD; source: E. coli BL21(DE3)-SI, purified (Ni2+ IMAC, Sephacryl S-300 SEC); not shown: His6, N-terminal, kept
[1]
  binding result: binds
[2]
  Kd: 4.6 µM
